1 substance from paper PMC11369088 can be followed below.

The target of this test is C-terminal FLAG-tag TEX264 (UniProt Q9Y6I9). Nature of the test: co-IP; FLAG co-IP of FLAG-tagged ER-phagy receptor from HEK293 Tg-NLuc cells in TNI buffer (50 mM Tris pH 7.5, 150 mM NaCl, 0.5% IGEPAL CA-630), four washes; Tg-NLuc on the resin read by nano-glo luciferase assay; against GFP control.
Chain of UniProt Q9Y6I9 (Q9Y6I9 whole entry): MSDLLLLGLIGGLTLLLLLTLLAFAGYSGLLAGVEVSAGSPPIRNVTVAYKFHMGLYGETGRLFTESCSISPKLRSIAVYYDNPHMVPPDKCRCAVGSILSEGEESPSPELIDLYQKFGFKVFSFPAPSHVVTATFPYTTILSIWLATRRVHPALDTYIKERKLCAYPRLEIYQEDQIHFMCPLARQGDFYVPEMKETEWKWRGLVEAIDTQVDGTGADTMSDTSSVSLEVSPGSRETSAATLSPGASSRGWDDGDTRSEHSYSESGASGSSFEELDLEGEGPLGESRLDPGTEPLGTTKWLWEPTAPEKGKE

The substance “nanoluciferase-tagged thyroglobulin C1264R (C1264R Tg-NLuc), P01266 20-2768” displayed a fold interaction against A2234D Tg of 2 fold and a fold interaction against WT Tg of 3 fold.
